According to the supplement of paper PMC9876800:

Test system: peptide library, one residue held at a place counted from the S/T acceptor
Test: relative phosphorylation of the sub-library (ratio to the mean residue at this position); higher = residue favoured
Details: human
Summary of the method: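 Spots on streptavidin membranes were phosphorimaged and quantified by densitometry to measure phosphorylation of biotinylated degenerate peptide sub-libraries by purified recombinant kinases, human or orthologue constructs. The reactions ran in 384-well plates for 90 min under kinase-specific conditions, with peptides at 50 μM and 50 μM ATP spiked with γ-32P-ATP. Relative sub-library phosphorylation is the ratio to the mean residue at that position.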

PHKG1, construct: Full length, sequence (Q16816 whole entry, looked up): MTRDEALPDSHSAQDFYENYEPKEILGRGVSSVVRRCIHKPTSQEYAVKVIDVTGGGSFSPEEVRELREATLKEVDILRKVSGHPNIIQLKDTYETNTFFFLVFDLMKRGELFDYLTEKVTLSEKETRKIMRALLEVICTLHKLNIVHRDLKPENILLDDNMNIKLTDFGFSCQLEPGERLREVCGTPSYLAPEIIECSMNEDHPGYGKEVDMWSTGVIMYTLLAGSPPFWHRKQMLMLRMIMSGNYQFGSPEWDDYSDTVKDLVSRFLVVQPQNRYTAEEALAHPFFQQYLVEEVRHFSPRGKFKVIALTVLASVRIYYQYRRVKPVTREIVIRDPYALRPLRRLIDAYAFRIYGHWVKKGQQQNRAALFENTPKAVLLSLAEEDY
MAPK11, construct: Full length, sequence (Q15759 whole entry, looked up): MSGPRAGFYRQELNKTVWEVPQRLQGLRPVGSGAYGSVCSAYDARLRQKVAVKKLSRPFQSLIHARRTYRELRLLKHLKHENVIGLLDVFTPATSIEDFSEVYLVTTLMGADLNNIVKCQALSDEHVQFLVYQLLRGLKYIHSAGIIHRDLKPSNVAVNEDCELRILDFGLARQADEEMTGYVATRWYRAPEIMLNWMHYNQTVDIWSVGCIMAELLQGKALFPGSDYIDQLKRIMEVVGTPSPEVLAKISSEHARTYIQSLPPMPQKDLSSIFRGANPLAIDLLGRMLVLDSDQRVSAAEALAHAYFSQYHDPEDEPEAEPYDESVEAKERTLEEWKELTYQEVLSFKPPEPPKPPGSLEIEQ
IKBKB, construct: Full length, sequence (O14920 whole entry, looked up): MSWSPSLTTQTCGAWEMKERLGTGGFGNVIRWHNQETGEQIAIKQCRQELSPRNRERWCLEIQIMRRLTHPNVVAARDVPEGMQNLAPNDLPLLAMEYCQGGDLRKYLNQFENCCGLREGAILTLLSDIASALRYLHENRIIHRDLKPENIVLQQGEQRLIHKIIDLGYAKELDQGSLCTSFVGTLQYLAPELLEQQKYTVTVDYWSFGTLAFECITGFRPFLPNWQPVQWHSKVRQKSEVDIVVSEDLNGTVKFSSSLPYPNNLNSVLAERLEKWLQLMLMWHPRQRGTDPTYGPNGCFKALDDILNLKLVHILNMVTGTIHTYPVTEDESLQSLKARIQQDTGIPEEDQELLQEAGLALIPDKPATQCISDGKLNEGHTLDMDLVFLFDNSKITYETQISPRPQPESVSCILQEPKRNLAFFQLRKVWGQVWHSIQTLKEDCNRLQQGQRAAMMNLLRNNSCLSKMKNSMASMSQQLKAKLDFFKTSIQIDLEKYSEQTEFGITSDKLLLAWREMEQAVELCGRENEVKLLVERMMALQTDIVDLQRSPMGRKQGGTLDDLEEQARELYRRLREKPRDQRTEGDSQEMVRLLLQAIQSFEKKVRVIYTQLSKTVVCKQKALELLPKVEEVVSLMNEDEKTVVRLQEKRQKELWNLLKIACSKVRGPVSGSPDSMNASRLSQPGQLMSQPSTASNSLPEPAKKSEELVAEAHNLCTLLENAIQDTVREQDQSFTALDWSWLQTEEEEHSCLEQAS

PHKG1, construct: Full length (from UniProt Q16816)
relative phosphorylation
Details | at +1 | at +2 | at +3 | at +4 | at -1 | at -2 | at -3 | at -4 | at -5
A fixed | 0.524 | 0.708 | 0.898 | 0.937 | 0.837 | 1.11 | 0.736 | 0.926 | 1
D fixed | 0.175 | 0.2 | 0.276 | 0.343 | 0.512 | 0.624 | 0.356 | 0.439 | 0.436
E fixed | 0.197 | 0.139 | 0.272 | 0.238 | 0.411 | 1.49 | 0.376 | 0.573 | 0.367
F fixed | 3.7 | 1.16 | 1.29 | 1.13 | 1.06 | 0.838 | 0.53 | 0.865 | 1.18
G fixed | 0.491 | 0.721 | 1.06 | 1.02 | 0.741 | 1.13 | 0.824 | 1.15 | 0.937
H fixed | 0.712 | 1.35 | 1.3 | 1.18 | 1.24 | 0.984 | 1.12 | 1.11 | 1.1
I fixed | 1.5 | 0.516 | 0.891 | 0.75 | 0.611 | 0.363 | 0.278 | 0.728 | 0.791
K fixed | 0.777 | 2.04 | 1.37 | 2.01 | 1.44 | 1.12 | 2.55 | 1.56 | 1.46
L fixed | 1.17 | 0.544 | 1.06 | 0.956 | 0.927 | 0.576 | 0.376 | 0.823 | 1.34
M fixed | 1.65 | 0.694 | 0.957 | 0.886 | 1.18 | 0.969 | 0.458 | 0.957 | 0.824
N fixed | 0.513 | 0.739 | 0.786 | 0.866 | 1.32 | 1.28 | 0.721 | 0.764 | 0.664
P fixed | 0.292 | 0.721 | 1.09 | 1.29 | 0.999 | 0.702 | 0.926 | 1.17 | 1.01
Q fixed | 0.779 | 0.703 | 0.782 | 1.01 | 1.14 | 2.05 | 0.936 | 0.927 | 0.779
R fixed | 0.876 | 3.73 | 1.46 | 1.67 | 1.57 | 1.55 | 4.81 | 1.63 | 1.58
V fixed | 1.22 | 0.501 | 0.721 | 0.752 | 0.711 | 0.508 | 0.311 | 0.721 | 0.832
W fixed | 1.21 | 1.48 | 1.56 | 1.1 | 0.931 | 0.813 | 0.98 | 1.58 | 1.71
Y fixed | 1.22 | 1.06 | 1.24 | 0.862 | 1.38 | 0.875 | 0.71 | 1.08 | 0.99
pThr fixed | 0.419 | 0.25 | 0.393 | 0.356 | 0.535 | 0.529 | 0.621 | 0.846 | 0.68
pTyr fixed | 0.329 | 0.171 | 0.348 | 0.254 | 0.675 | 0.4 | 0.469 | 0.721 | 0.599

IKBKB, construct: Full length (from UniProt O14920)
relative phosphorylation
Details | at +1 | at +2 | at +3 | at +4 | at -1 | at -2 | at -3 | at -4 | at -5
A fixed | 0.6 | 0.901 | 1.06 | 1.08 | 0.811 | 0.919 | 0.94 | 1.15 | 1.22
D fixed | 0.469 | 1.2 | 1.65 | 1.46 | 1.1 | 0.397 | 0.912 | 1.57 | 1.71
E fixed | 0.544 | 1.27 | 1.65 | 1.43 | 0.941 | 0.805 | 1.05 | 1.8 | 1.52
F fixed | 1.55 | 0.676 | 1.01 | 0.834 | 0.909 | 2.22 | 1.07 | 0.751 | 0.995
G fixed | 1.12 | 1.2 | 1.46 | 1.09 | 0.478 | 0.442 | 1 | 1.24 | 1.23
H fixed | 0.745 | 1.39 | 1.11 | 0.922 | 1.21 | 1.47 | 1.19 | 0.94 | 1.01
I fixed | 2.06 | 0.812 | 0.71 | 0.769 | 0.89 | 1.11 | 0.762 | 0.749 | 0.741
K fixed | 0.268 | 0.805 | 0.68 | 0.827 | 1.03 | 0.408 | 0.878 | 0.741 | 0.714
L fixed | 2.05 | 0.783 | 0.816 | 0.81 | 1.22 | 1.48 | 0.699 | 0.754 | 0.687
M fixed | 1.66 | 0.701 | 0.8 | 0.995 | 1.09 | 1.16 | 0.764 | 0.907 | 0.738
N fixed | 0.613 | 1.5 | 1.1 | 1.08 | 1.15 | 1.06 | 1.01 | 0.988 | 1.03
P fixed | 0.228 | 1.13 | 0.931 | 1.43 | 1.06 | 0.371 | 1.31 | 1.17 | 0.973
Q fixed | 0.576 | 1.25 | 0.91 | 1.06 | 0.989 | 0.73 | 0.922 | 0.878 | 0.908
R fixed | 0.362 | 1.08 | 0.608 | 0.672 | 1.07 | 0.583 | 1.76 | 0.975 | 0.842
V fixed | 1.38 | 1.1 | 0.688 | 0.738 | 0.998 | 0.762 | 0.843 | 0.804 | 0.89
W fixed | 1.46 | 0.525 | 0.904 | 1.02 | 0.895 | 0.85 | 0.885 | 0.733 | 0.926
Y fixed | 1.33 | 0.665 | 0.917 | 0.773 | 1.16 | 2.23 | 1.01 | 0.851 | 0.864
pThr fixed | 0.817 | 1.38 | 0.898 | 1.53 | 1.01 | 1.08 | 1.55 | 1.97 | 1.93
pTyr fixed | 1.03 | 1.32 | 1.23 | 1.06 | 1.77 | 4.33 | 2.11 | 1.48 | 1.51

MAPK11, construct: Full length (from UniProt Q15759)
relative phosphorylation
Details | at +1 | at +2 | at +3 | at +4 | at -1 | at -2 | at -3 | at -4 | at -5
A fixed | 1.65 | 1.14 | 1.35 | 0.935 | 1.22 | 0.953 | 1.26 | 1.14 | 1.12
D fixed | 0.136 | 0.985 | 0.947 | 0.919 | 0.745 | 0.501 | 0.917 | 1.25 | 1.06
E fixed | 0.12 | 0.81 | 0.98 | 0.818 | 0.765 | 0.338 | 1.03 | 1.13 | 0.921
F fixed | 0.268 | 0.828 | 0.913 | 1.27 | 0.852 | 0.614 | 0.708 | 0.766 | 0.944
G fixed | 0.841 | 1.14 | 1.08 | 1.19 | 1.24 | 0.73 | 1.53 | 1.21 | 1.22
H fixed | 0.227 | 1.1 | 0.959 | 1.15 | 1.21 | 0.572 | 0.902 | 0.941 | 1.12
I fixed | 0.304 | 1.15 | 1.11 | 1.05 | 0.676 | 1.16 | 1.04 | 0.885 | 0.88
K fixed | 0.209 | 1.12 | 0.583 | 0.818 | 0.842 | 0.461 | 0.722 | 0.961 | 0.921
L fixed | 0.337 | 1.04 | 1.01 | 1.14 | 1.37 | 1.46 | 1.09 | 0.982 | 1.08
M fixed | 0.26 | 0.951 | 0.852 | 1.08 | 1.67 | 1.22 | 0.988 | 1.06 | 0.941
N fixed | 0.141 | 0.874 | 0.632 | 0.764 | 0.705 | 0.585 | 0.886 | 0.952 | 0.956
P fixed | 11.4 | 0.762 | 1.95 | 1.01 | 1.39 | 5.14 | 1.61 | 1.29 | 1.37
Q fixed | 0.185 | 0.942 | 0.71 | 0.859 | 1.26 | 0.633 | 1.05 | 0.94 | 0.902
R fixed | 0.206 | 1.08 | 0.676 | 0.871 | 0.847 | 0.505 | 0.835 | 0.823 | 0.834
V fixed | 0.289 | 1.24 | 1.25 | 0.995 | 0.749 | 1.16 | 0.954 | 0.896 | 0.839
W fixed | 0.206 | 0.792 | 0.975 | 1.04 | 0.618 | 0.437 | 0.723 | 0.946 | 0.913
Y fixed | 0.2 | 1.05 | 1.02 | 1.1 | 0.833 | 0.53 | 0.748 | 0.83 | 0.981
pThr fixed | 0.405 | 1.32 | 1.18 | 0.795 | 0.364 | 0.617 | 1.1 | 1.16 | 1.15
pTyr fixed | 0.589 | 0.741 | 0.996 | 0.757 | 0.653 | 0.396 | 0.932 | 1.04 | 1.05
